# Source: US20200147235A1 (AbbVie / Abbott, published 2020)
# Where two headings read alike, the source gives them in different places.
# T1: Human CD98 ECD with C-terminal His-tag (human, UniProt P08195 105-529)
# T1 construct: also called huCD98 ECD; recombinant human CD98 extracellular domain
# T1 sequence: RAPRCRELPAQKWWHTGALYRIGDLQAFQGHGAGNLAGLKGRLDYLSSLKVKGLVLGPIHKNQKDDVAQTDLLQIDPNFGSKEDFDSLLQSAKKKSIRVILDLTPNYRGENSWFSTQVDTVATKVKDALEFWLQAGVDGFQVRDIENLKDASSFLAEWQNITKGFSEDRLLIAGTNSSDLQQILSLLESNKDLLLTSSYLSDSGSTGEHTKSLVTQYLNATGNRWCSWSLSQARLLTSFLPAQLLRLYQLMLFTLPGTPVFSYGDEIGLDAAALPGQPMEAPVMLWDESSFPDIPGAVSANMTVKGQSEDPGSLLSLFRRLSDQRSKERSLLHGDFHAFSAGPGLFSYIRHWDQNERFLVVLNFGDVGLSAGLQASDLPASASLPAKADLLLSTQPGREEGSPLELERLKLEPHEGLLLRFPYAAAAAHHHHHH
# T2: Cynomolgus monkey CD98 ECD with C-terminal His-tag (cynomolgus monkey, UniProt P08195 105-529 (human entry))
# T2 construct: also called cyCD98 ECD; recombinant cynomolgus monkey CD98 extracellular domain
# T2 chain: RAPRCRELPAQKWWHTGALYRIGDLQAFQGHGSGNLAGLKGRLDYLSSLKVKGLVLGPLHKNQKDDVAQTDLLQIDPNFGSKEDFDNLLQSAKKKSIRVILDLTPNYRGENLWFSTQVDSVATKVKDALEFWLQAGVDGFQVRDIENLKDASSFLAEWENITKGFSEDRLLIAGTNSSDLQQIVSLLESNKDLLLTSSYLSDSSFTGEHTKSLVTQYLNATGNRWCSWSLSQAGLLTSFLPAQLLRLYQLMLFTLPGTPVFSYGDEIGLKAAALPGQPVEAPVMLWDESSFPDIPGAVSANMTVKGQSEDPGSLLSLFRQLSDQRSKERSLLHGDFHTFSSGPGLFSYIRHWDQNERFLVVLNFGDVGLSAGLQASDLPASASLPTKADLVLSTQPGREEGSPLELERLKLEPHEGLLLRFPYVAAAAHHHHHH
# T3: Human CD98 expressed on stably transfected CHO-K1 cells (human)
# T3 construct: also called huCD98; CD98 heavy chain
# T3 chain: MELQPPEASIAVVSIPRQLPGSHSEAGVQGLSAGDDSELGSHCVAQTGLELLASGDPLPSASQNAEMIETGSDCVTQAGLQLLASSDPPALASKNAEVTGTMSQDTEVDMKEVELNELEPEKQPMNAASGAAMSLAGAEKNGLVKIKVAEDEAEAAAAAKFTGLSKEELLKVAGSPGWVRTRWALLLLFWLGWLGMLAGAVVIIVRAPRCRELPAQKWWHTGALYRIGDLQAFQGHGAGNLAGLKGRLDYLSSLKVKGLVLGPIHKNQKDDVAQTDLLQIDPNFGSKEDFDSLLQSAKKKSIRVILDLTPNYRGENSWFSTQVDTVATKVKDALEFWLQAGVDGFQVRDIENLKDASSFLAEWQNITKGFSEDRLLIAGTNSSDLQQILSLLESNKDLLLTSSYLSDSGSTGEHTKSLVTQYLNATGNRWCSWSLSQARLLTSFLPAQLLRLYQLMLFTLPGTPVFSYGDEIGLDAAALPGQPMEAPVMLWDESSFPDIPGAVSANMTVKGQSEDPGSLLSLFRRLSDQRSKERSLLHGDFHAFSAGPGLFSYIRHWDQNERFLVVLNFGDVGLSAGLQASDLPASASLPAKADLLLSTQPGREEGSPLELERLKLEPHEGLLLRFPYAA
# Key:
# [1] = target: T1, Human CD98 ECD with C-terminal His-tag; assay: SPR Biacore, anti-Fc capture of mAb, CD98 ECD analyte
# Procedure: (§1) The binding kinetics of these purified mouse and rat monoclonal anti-CD98 antibodies for purified recombinant CD98 protein (extracellular domain. ECD) were determined by surface plasmon resonance-based measurements made on Biacore T100/T200 instruments (GE Healthcare, Piscataway, N.J.) at 25° C. using an anti-Fc capture assay approach. Binding kinetic measurements were made in the assay buffer HBS-EP+: 10 mM Hepes, pH 7.4, 150 mM NaCl, 3 mM EDTA, 0.05% Tween 20). For example, approximately 8000 RU of anti-Fc (species specific) polyclonal antibody (Thermo Fisher Scientific Inc. Rockford, Ill.) diluted in 10 mM sodium acetate (pH 4.5) was directly immobilized across a CM5 research grade biosensor chip using a standard amine coupling kit according to manufacturer's instructions and procedures at 25 μg/ml. Unreacted moieties on the biosensor surface were blocked with ethanolamine. The test antibody to be captured as a ligand was diluted in running buffer to ˜0.5 μg/mL and injected over anti-Fc surface at a flow rate of 10 μL/min, CD98 binding and dissociation were observed under a continuous flow rate of 80 μL/min. Human and cynomolgus monkey CD98 ECDs, both with a C-terminal His-tag, are used for this study (Table 3). After each cycle the anti-Fc capture surface was regenerated using 10 mM Glycine-HCl, pH 1.5. During the assay, all measurements were referenced against the capture surface alone (i.e., with no captured test antibody) and buffer-only injections (no antigen) were used for double referencing. For kinetic analysis, rate equations derived from the 1:1 Langmuir binding model were fitted simultaneously, globally and with mass transfer term included to multiple referenced antigen binding curves using Biacore T100T200 Evaluation software.
# [2] = target: T2, Cynomolgus monkey CD98 ECD with …; assay: as above
# Procedure: as §1
# [3] = target: T1, Human CD98 ECD with C-terminal His-tag; assay: SPR Biacore, anti-Fc capture of mAb, CD98 ECD analyte; kd set to assay limit
# Procedure: as §1, with “During the assay, all measurements were referenced against the capture surface alone (i.e., with no captured test antibody) and buffer-only injections (no antigen) were used for double referencing. For kinetic analysis, rate equations derived from the 1:1 Langmuir binding model were fitted simultaneously, globally and with mass transfer term included to multiple referenced antigen binding curves using Biacore T100T200 Evaluation software.” left out
# [4] = target: T2, Cynomolgus monkey CD98 ECD with …; assay: as above
# Procedure: as §1, with “During the assay, all measurements were referenced against the capture surface alone (i.e., with no captured test antibody) and buffer-only injections (no antigen) were used for double referencing. For kinetic analysis, rate equations derived from the 1:1 Langmuir binding model were fitted simultaneously, globally and with mass transfer term included to multiple referenced antigen binding curves using Biacore T100T200 Evaluation software.” left out
# [5] = target: T3, Human CD98 expressed on stably …; assay: flow cytometry, CHO-K1 cells expressing human CD98
# Procedure: (§2) Briefly, binding kinetics of anti-CD98 chimera mAbs for human and cynomolgus CD98 ECDs were determined by surface plasmon resonance-based measurements as described in Example 4. Table 10 reported the association and dissociation rate constants for CD98 binding, kₐ (M⁻¹s⁻¹) and kd (s⁻¹), and the equilibrium dissociation constant KD (M) of the interaction between antibodies and the target antigen. Binding of anti-CD98 chimera mAbs for CD98 on cell surface was evaluated by flow cytometry against CHO-K1 cell line stably transfected to express human CD98 and 3T12 cell line stably transfected to express cynomolgus monkey CD98.
# [6] = target: T1, Human CD98 ECD with C-terminal His-tag; assay: SPR Biacore, anti-Fc capture of mAb, CD98 ECD analyte; remark: listed apart in the source
# Procedure: as §1
# (§3) Briefly, binding kinetics of anti-CD98 chimera mAbs for human and cynomolgus CD98 ECDs were determined by surface plasmon resonance-based measurements as described in Example 4.
# [7] = target: T2, Cynomolgus monkey CD98 ECD with …; assay: as above
# Procedure: as §1, §3
# [8] = target: T4, Cynomolgus monkey CD98 expressed on stably transfected 3T12 cells (cynomolgus monkey); assay: flow cytometry, 3T12 cells expressing cynomolgus CD98
# T4 construct: whole, on cells; also called cyCD98
# Procedure: as §2
Binder,Kd [1] [nM],kon [1] [M⁻¹ s⁻¹],Kd [2] [nM],kon [2] [M⁻¹ s⁻¹],koff [3] [s⁻¹],koff [4] [s⁻¹],EC50 [5] [nM],Kd [6] [nM],koff [6] [s⁻¹],kon [6] [M⁻¹ s⁻¹],Kd [7] [nM],koff [7] [s⁻¹],kon [7] [M⁻¹ s⁻¹],EC50 [8] [nM]
"Anti-CD98 murine hybridoma antibody Ab1 (antibody, V domains shown) VH: EVKLVESGGGLVQPGGSLRLSCATSGFTFTDYYMSWVRQPPGKALEWLGFIRNPANVYTTEYSASVKGRFTISRDNSQSILYLQMNTLRAEDSATYYCARASYGNSEGWFAYWGQGTLVTVSA VL: DIVMSQSPSSLAVSVGEKVTMSCKSSQNLLYNNNQKNYLAWYQQKPGQSPKLLIYWASTRESGVPDRFTGSGSGTDFTLTISSVKAEDLAVYYCQQYYSYPRTFGGGTKLEIK",≤ 0.059,85000,≤ 0.12,43000,≤ 5e-06,≤ 5e-06,,,,,,,,
"Recombinant anti-CD98 chimeric antibody chAb8 (antibody, human IgG1, V domains shown) VH: EVQLVESGGGLVQPGRSLKLSCAASGFTFSDYAMAWVRQAPKKGLEWVASIIYDGRGTYYRDSVKGRFTISRDNAKSTLYLQMDSLRSEDTATYYCARQGDGTYYYWGYFDYWGQGVMVTVSS VL: DIVMTQSPSSLAVSAGETVTINCKSSQSLLSSGNQKNYLAWYQQKPGQSPKLLIYWASTRQSGVPDRFIGSGSGTDFTLTINSVQAEDLAIYYCQQYYDTPYTFGAGTKLELK",,,,,,,2.61,4.2,0.00028,67000,17,0.0005,28000,10.1
"Recombinant anti-CD98 chimeric antibody chAb12 (antibody, human IgG1, V domains shown) VH: EVQLVESGGGLVQPGRSLKLSCAASGFTFSDYAMAWVRQAPKKGLEWVASIIYDGRGTYYRDSVKGRFTISRDNAKSTLYLQMDSLRSEDTATYYCARQGDGTYYYWGSFDYWGQGVMVTVSS VL: DIVMTQSPSSLAVSAGETVTINCKSSQSLLSSGNQKNYLAWYQQKPGQSPKLLIYWASTRQSGVPDRFIGSGSGTDFTLTISSVQAEDLAIYHCQQYYDTPYTFGAGTKLELK",,,,,,,2.89,1.2,6.3e-05,54000,3.8,9.3e-05,24000,14.9
"Recombinant anti-CD98 chimeric antibody chAb15 (antibody, human IgG1, V domains shown) VH: EVQLVESGGGLVQPGRSLKLSCAASGFTFSDYTMAWVRQAPKKGLEWVATIIYDGRGTYYRDSVKGRFTISRDNAKSTLYLQMDSLRSEDTATYYCARQSDGTYYYWGYFDYWGQGVMVTVSS VL: DIVMTQSPSSLAVSAGETVTINCKSSQSLLFSGNQKNYLAWYQQKPGQSPKLLIYWASTRQSGVPDRFIGSGSGTDFTLTIRSVQAEDLAIYYCQQYYDSPYTFGAGTKLELK",,,,,,,6.63,1.1,4.6e-05,43000,3.7,7.4e-05,20000,20.3
"Recombinant anti-CD98 chimeric antibody chAb10 (antibody, human IgG1, V domains shown) VH: EVQLVESGGGLVQPGRSLKLSCAASGFTFSDYAMAWVRQAPKKSLEWVATIIYDGRGTYCRDSVKGRFTISRDNAKSTLYLQMDSLRSEDTATYYCARQGDGTYHYWGYFDYWGQGVMVTVSS VL: DIVMTQSPSSLAVSAGETVTINCKSSQSLLSSGNQKNYLAWYQQKPGQSPKLLIYWASTRQSGVPDRFIGSGSGTDFTLTISSVQAEDLAIYYCQQYYDTPYTFGAGTKVDLK",,,,,,,6.45,3.3,0.00033,100000,11,0.00064,59000,10.8
"Recombinant anti-CD98 chimeric antibody chAb11 (antibody, human IgG1, V domains shown) VH: EVQLVESGGGLVQPGRSLKLSCAASGFTFSDYAMAWVRQAPKKGLEWVAGIIYDGRGTYYRDSVKGRFTISRDNAKSTLYLQMDSLRSEDTATYYCARQGDGTYYYWGYFDYWGQGVMVTVSS VL: DIVMTQSPSSLAVSAGETVTINCRSSQSLLSSGNQKNYLAWYQQKPGQSPKLLIYWASTRQSGVPDRFIGSGSGTDFTLTISSVQAEDLAIYYCQQYYDTPYTFGAGTKLELK",,,,,,,4.57,28,0.0013,45000,110,0.002,18000,16.9
"Recombinant anti-CD98 chimeric antibody chAb7 (antibody, human IgG1, V domains shown) VH: QVQLKESGPGLVQPSQTLSLTCTVSGFSLSTYGVIWVRQPPGKGLEWMGVIWANGNTNYNSTLKSRLSISRDTSKSQVYLKMNSLQTEDTATYYCARHYYDGTYYYGYFDYWGQGVMVTVSS VL: DIVMTQTPSSQAVSAGEKVTMNCKSSQSLLYSENKKNYLAWYQQKPGQSPKLLIYWASTRESGVPDRFIGSGSGTDFTLTISSVQAEDLAVYYCQQYYYFPYTFGPGTKLELK",,,,,,,2.56,0.45,6.2e-05,140000,3.5,0.00022,63000,6.49
"Recombinant anti-CD98 chimeric antibody chAb14 (antibody, human IgG1, V domains shown) VH: EVKLQQSGDELVRPGASVKISCKASGYTFTSYSMHWVKERPGQGLEWIGAIFPIIGTTEYNQKFKGKATLTADKSSNTANMELSRLTSEDSAVYYCARVYLSYFDYWGQGVMVTVSS VL: DIQMTQSPSFLSASVGDRVTINCKASQNINKYLDWYQRKHGEAPKLLIYNTNNLQTGIPSRFSGSGSGTDYTLTISSLQPEDVATYFCLQHSSRYTFGAGTKLELK",,,,,,,3.75,3.9,8.4e-05,22000,110,0.0014,12000,18
